In the test the target is T1, Zfra16–31.
T1 construct: Zfra, residues 16-31; also called Zfra peptide of amino acid #16–31; source: synthetic peptide (manual synthesis, Genemed Synthesis)
T1 peptide: FRAHTQKNAATPFLAN
Nature of the test: SDS-PAGE of the incubated peptide (ladder of polymers); peptides alone (2 mM in 100 μl PBS) or mixed together, room temperature, 24 hr (legend; the text says sterile MilliQ water, 48 hr); non-reducing and reducing gels; less polymerization in MilliQ water. The conditions noted are these: both partners purified.

B1: Zfra1–15 (peptide)
peptide: MSSRRSSSCKYCEQD
notes: Zfra, residues 1-15; also called Zfra peptide of amino acid #1–15; source: synthetic peptide (manual synthesis, Genemed Synthesis)
Regarding B1, the binding result is reported as “binds”.

The record behind these values is publication PMC4414150, “Zfra activates memory Hyal-2+ CD3− CD19− spleen cells to block cancer growth, stemness, and metastasis in vivo” (Oncotarget, 2015).
